In US20230287096A1 (published 2023):

T1: FAM19A5 epitope fragment F2, conjugated to BSA (human, conjugated to BSA)
T1 peptide: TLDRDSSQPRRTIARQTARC

T2: F2-01-BSA (#1) (human, conjugated to BSA)
T2 construct: also called mutant F2 peptide fragment #1
T2 peptide: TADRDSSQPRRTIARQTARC

T3: F2-02-BSA (#2) (human, conjugated to BSA)
T3 construct: also called mutant F2 peptide fragment #2
T3 peptide: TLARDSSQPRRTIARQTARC

T4: F2-03-BSA (#3) (human, conjugated to BSA)
T4 construct: also called mutant F2 peptide fragment #3
T4 peptide: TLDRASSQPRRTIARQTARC

T5: F2-04-BSA (#4) (human, conjugated to BSA)
T5 construct: also called mutant F2 peptide fragment #4
T5 peptide: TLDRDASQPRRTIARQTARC

T6: F2-05-BSA (#5) (human, conjugated to BSA)
T6 construct: also called mutant F2 peptide fragment #5
T6 peptide: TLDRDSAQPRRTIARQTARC

T7: F2-06-BSA (#6) (human, conjugated to BSA)
T7 construct: also called mutant F2 peptide fragment #6
T7 peptide: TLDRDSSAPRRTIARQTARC

T8: F2-07-BSA (#7) (human, conjugated to BSA)
T8 construct: also called mutant F2 peptide fragment #7
T8 peptide: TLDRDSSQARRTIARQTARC

T9: F2-08-BSA (#8) (human, conjugated to BSA)
T9 construct: also called mutant F2 peptide fragment #8
T9 peptide: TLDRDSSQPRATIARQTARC

T10: F2-09-BSA (#9) (human, conjugated to BSA)
T10 construct: also called mutant F2 peptide fragment #9
T10 peptide: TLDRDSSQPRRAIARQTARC

T11: F2-10-BSA (#10) (human, conjugated to BSA)
T11 construct: also called mutant F2 peptide fragment #10
T11 peptide: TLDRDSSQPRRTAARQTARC

T12: F2-11-BSA (#11) (human, conjugated to BSA)
T12 construct: also called mutant F2 peptide fragment #11
T12 peptide: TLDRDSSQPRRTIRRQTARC

T13: F2-12-BSA (#12) (human, conjugated to BSA)
T13 construct: also called mutant F2 peptide fragment #12
T13 peptide: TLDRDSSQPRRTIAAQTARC

T14: F2-13-BSA (#13) (human, conjugated to BSA)
T14 construct: also called mutant F2 peptide fragment #13
T14 peptide: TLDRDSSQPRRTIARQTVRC


Assays:
[1] = target: Recombinant human FAM19A5 protein (human, UniProt Q7Z5A7 44-132); assay: ELISA
[2] = target: T1, FAM19A5 epitope fragment F2, conjugated …; assay: ELISA, BSA-conjugated peptide coated on plate
Description: Overlapping peptide fragments (F1-F6, See FIG. 1) of the human FAM19A5 protein were synthesized and conjugated to BSA. Binding of the different anti-FAM19A5 antibodies to the BSA-conjugated peptide fragments F1-F6 was determined by ELISA assay. Briefly, FAM19A5 fragment F1-F6 (diluted to 1 μg/mL in 50 mM carbonate buffer (Biosesang) or to 20 μg/mL for high concentration analysis) were used to coat the wells of 96-well immuno plates (Thermo Scientific) (100 μL/well) overnight at 4° C. and then subsequently washed twice in 1×PBS. The plates were then blocked with the blocking buffer (100 μL/well) for 1 hour at room temperature. During the 1-hour incubation, the relevant anti-FAM19A5 antibodies were diluted to 1 μg/mL (or 20 μg/mL for high concentration analysis) in the diluent buffer. Once the plates were washed (2×using 1×PBS), the diluted anti-FAM19A5 antibodies were added to the appropriate wells, and the plates were incubated at room temperature for 1 hour. The plates were subsequently washed for a total of five times using the washing buffer. […] The absorption value of each of the wells was detected at 492 nm using a 96-well microplate reader (Molecular Device).

F2-01-BSA (#1) = target: T2, F2-01-BSA (#1); assay: ELISA, BSA-conjugated mutant F2 peptide coated on plate
F2-02-BSA (#2) = target: T3, F2-02-BSA (#2); assay: as above
F2-03-BSA (#3) = target: T4, F2-03-BSA (#3); assay: as above
F2-04-BSA (#4) = target: T5, F2-04-BSA (#4); assay: as above
F2-05-BSA (#5) = target: T6, F2-05-BSA (#5); assay: as above
F2-06-BSA (#6) = target: T7, F2-06-BSA (#6); assay: as above
F2-07-BSA (#7) = target: T8, F2-07-BSA (#7); assay: as above
F2-08-BSA (#8) = target: T9, F2-08-BSA (#8); assay: as above
F2-09-BSA (#9) = target: T10, F2-09-BSA (#9); assay: as above
F2-10-BSA (#10) = target: T11, F2-10-BSA (#10); assay: as above
F2-11-BSA (#11) = target: T12, F2-11-BSA (#11); assay: as above
F2-12-BSA (#12) = target: T13, F2-12-BSA (#12); assay: as above
F2-13-BSA (#13) = target: T14, F2-13-BSA (#13); assay: as above

Recombinant human FAM19A5 protein, sequence (Q7Z5A7 other isoform, or with tags, fused parts or gaps): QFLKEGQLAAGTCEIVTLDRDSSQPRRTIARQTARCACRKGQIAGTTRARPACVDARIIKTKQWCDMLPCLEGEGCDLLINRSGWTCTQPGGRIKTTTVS

Row | Kd [1] [nM] | binding result [2] | binding result (F2-01-BSA (#1)) | binding result (F2-02-BSA (#2)) | binding result (F2-03-BSA (#3)) | binding result (F2-04-BSA (#4)) | binding result (F2-05-BSA (#5)) | binding result (F2-06-BSA (#6)) | binding result (F2-07-BSA (#7)) | binding result (F2-08-BSA (#8)) | binding result (F2-09-BSA (#9)) | binding result (F2-10-BSA (#10)) | binding result (F2-11-BSA (#11)) | binding result (F2-12-BSA (#12)) | binding result (F2-13-BSA (#13)) | Binder
1 | ~2.77 |  |  |  |  |  |  |  |  |  |  |  |  |  |  | Anti-FAM19A5 antibody 2-13 (antibody, V domains shown, Chicken-derived scFv clone converted to a full antibody; also called Anti-FAM19A5 ("2-13")) VH: AVTLDESGGGLQTPGGALSLVCKASGFTFSSHGMFWVRQTPGKGLEYVAEITNDGSGTNYGSAVKGRATISRDNGQSTVRLQLNNLRAEDTGTYFCARSTYECPGGFSCWGDTGQIDAWGHGTEVIVSS VL: ALTQPSSVSANPGETVKITCSGGSYSYGWFQQKSPGSALVTVIYWDDERPSDIPSRFSGALSGSTNTLTITGVQADDEAVYFCGTEDISGTAGVFGAGTTLTVL
2 | 0.1 |  |  |  |  |  |  |  |  |  |  |  |  |  |  | Anti-FAM19A5 antibody 1-65 (antibody, V domains shown, VL = 39 to 42)) VH: AVTLDESGGGLQTPGGALSLVCKASGFTFSSYQMGWVRQAPGKGLEWVGVINKSGSDTSYGSAVKGRATISRDNGQSTVRLQLNNLRAEDTGTYFCAKGSASYITAATIDAWGHGTEVIVSS VL: ALTQPSSVSANPGETVKITCSGGGSSGYGYGWYQQKSPSSAPLTVIYWNDKRPSDIPSRFSGSKSGSTHTLTITGVQAEDEAVYFCGNDDYSSDSGYVGVFGAGTTLTVL
3 | 0.12 | binds | binds | binds | binds | binds | binds | binds | binds | binds | binds | binds | binds | binds | binds | Anti-FAM19A5 antibody 3-2 (antibody, V domains shown, The text reports the results for '3-2' without separating them, so one molecule is written; Only the variable domains are tied to the name; also called h3-2; m3-2) VH: not shown VL: ALTQPSSVSANPGETVKITCSGGGSYAGSYYYGWYQQKAPGSAPVTLIYESNKRPSDIPSRFSGSTSGSTATLTITGVQADDEAIYYCGSWDSSNGGIFGAGTTLTVL
4 | 0.17 |  | binds | binds |  | binds | binds | binds | binds | binds | binds | binds | binds | binds | binds | Anti-FAM19A5 antibody 1-28 (antibody, V domains shown, also called Anti-FAM19A5 ("1-28")) VH: AVTLDESGGGLQTPGGALSLVCKASGFDFSDYGMGWVRQAPGKGLEWVAAIRSDGSNPSYGSAVKGRATISKDNGRSTVRLQLNNLRAEDTATYYCAKDGNGYCALDAYRSGGYSCGVYPGSIDAWGHGTEVIVSS VL: ALTQPSSVSANLEGTVEITCSGSGYGYGWYQQKSPGSAPVTVIYQNDKRPSDIPSRFSGSKSGSTGTLTITGVQVEDEAVYYCGSEDSSTLAGIFGAGTTLTVL
